Experimental data from US20250276090A1, “Methods and Compositions for Genetically Modifying a Cell” (Intellia Therapeutics, Inc., priority 2022, published 2025).
Strand notation (5' to 3'): a small letter for the sugar, then the base; units joined by * are phosphorothioate-linked, units joined directly phosphodiester-linked; [ ] holds rarer units or linkages, { } end groups; capitals alone tell only the bases. m = 2'-O-methyl; r = 2'-OH (RNA)

Columns and labels:
Type in all cases: cell-based, human
[1] = tested on: TRBC1 locus; test: NGS percent editing with SpyCas9 and Nme2 base editor, TRBC1 (Example 9); conditions: TRBC1 BE guide, Day 7
Excerpt: (§1) Genomic DNA was extracted using QuickExtract™ DNA Extraction Solution (Lucigen, Cat. No. QE09050) according to manufacturer's protocol.
(§2) To quantitatively determine the efficiency of editing at the target location in the genome, deep sequencing was utilized to identify the presence of insertions, deletions, and substitution introduced by gene editing. PCR primers were designed around the target site within the gene of interest (e.g., HLA-A) and the genomic area of interest was amplified. Primer sequence design was done as is standard in the field.
(§3) Additional PCR was performed according to the manufacturer's protocols (Illumina) to add chemistry for sequencing. The amplicons were sequenced on an Illumina MiSeq instrument. The reads were aligned to the human reference genome (e.g., hg38) after eliminating those having low quality scores. Reads that overlapped the target region of interest were re-aligned to the local genome sequence to improve the alignment. Then the number of wild type reads versus the number of reads which contain C-to-T mutations, C-to-A/G mutations or indels was calculated. Insertions and deletions were scored in a 20 bp region centered on the predicted Cas9 cleavage site. Indel percentage is defined as the total number of sequencing reads with one or more base inserted or deleted within the 20 bp scoring region divided by the total number of sequencing reads, including wild type. C-to-T mutations or C-to-A/G mutations were scored in a 40 bp region including 10 bp upstream and 10 bp downstream of the 20 bp sgRNA target sequence. The C-to-T editing percentage is defined as the total number of sequencing reads with either one or more C-to-T mutations within the 40 bp region divided by the total number of sequencing reads, including wild type. The percentage of C-to-A/G mutations are calculated similarly.
(§4) Isolated, cryopreserved T cells were thawed in a water bath and plated at a density of 1×10^6 cells/mL in TCAM media containing CTS OpTmizer T Cell Expansion SFM and T Cell Expansion Supplement (ThermoFisher Cat. A1048501), 1× Penicillin-Streptomycin, 1× Glutamax, 10 mM HEPES, 200 U/mL recombinant human interleukin-2 (Peprotech, Cat. 200-02), 5 ng/mL recombinant human interleukin 7 (Peprotech, Cat. 200-07), and 5 ng/mL recombinant human interleukin 15 (Peprotech, Cat. 200-15) and 2.5% human AB serum (GeminiBio, Cat. 100-512). Technical replicates were prepared using isolated T cells from multiple donors. Data shown is from a selected donor.
(§5) LNPs were generally prepared as described in Example 1. Lipid nanoparticles in this example were prepared with molar ratios of 35 Lipid A: 47.5 cholesterol: 15 DSPC: 2.5 PEG2k-DMG. LNPs were made with a lipid amine to RNA phosphate (N:P) molar ratio of about 6. LNPs were formulated with a single RNA species or coformulated with multiple RNA species as described in Table 32. LNPs were delivered to T cells in TCAM media containing ApoE3 (Peprotech, Cat. 350-02) as described in Table 32.
(§6) On Day 1 (e.g., about 24 hours post thaw) cells were harvested and activated with TransAct™ (1:100 dilution, Miltenyi Biotec). LNPs were applied at the doses listed in Table 32 on Day 3 along with 0.5 uM of Compound 1.
(§7) Beginning on Day 4, cells were split and media refreshed regularly. On Day 7, a portion of cells were harvested for sequencing analysis at TRAC, TRBC1, TRBC2 and CIITA loci. NGS analysis was performed as described in Example 1. Table 33 and FIG. 15 show mean percent editing for these cells.

[2] = tested on: CIITA locus; test: NGS percent editing with SpyCas9 and Nme2 base editor, CIITA (Example 9); conditions: CIITA BE guide, Day 7
Excerpt: as §1, §2, §3, §4, §5, §6, §7

[3] = tested on: AAVS1; test: GFP insertion at AAVS1 in T cells with SpyCas9 RNP and gapped AAV templates, flow cytometry (Example 6); conditions: day 7 post-editing
Experimental: AAVS1 guide RNAs were designed and screened to identify insertion SpyCas9 guides using a series of gapped AAV GFP templates (A, B, C, D, OG) each designed for a subset of the guide RNAs. Insertion efficacy in T cells was examined by assessing GFP expression by flow cytometry. The percentage of T cells positive for green fluorescent protein (“% GFP+”) was assayed by flow cytometry, following AAVS1 editing by mRNA and AAV delivery.
Healthy human donor apheresis was obtained commercially (Hemacare) from two donors (#110042863 and #110040377) and cells were washed and resuspended in MACS Buffer containing 2 mM EDTA and 0.5% Fetal Bovine Serum (FBS) in PBS. Cells were washed twice by centrifugation followed by CD3 negative selection using Easy Sep Human T Cell Isolation Kit (Stemcell, Cat. 100-0695) and separated using Easy Sep Magnets (Stemcell, Cat.18000). T cells were aliquoted and cryopreserved for future use in Cryostor® CS10 (StemCell Technologies Cat. 07930).
AAVS1 guide RNAs were assessed for insertion efficacy in T cells by assessing GFP expression by flow cytometry. The percentage of T cells positive for green fluorescent protein (“% GFP+”) was assayed by flow cytometry, following AAVS1 editing by mRNA and AAV delivery.
AAVS1 targeting sgRNAs corresponding to the flanking homology regions of Gap Templates A, B, C, D, & OG (SEQ ID NOs: 299-303) were removed from their storage plates and denatured for 2 minutes at 95° C. before cooling at room temperature for 10 minutes. RNP mixture of 20 μM sgRNA and 10 μM Cas9-NLS protein (SEQ ID NO: 296) was prepared and incubated at 25° C. for 10 minutes. 2.5 μL of RNP mixture was combined with 250,000 cells in […] P3 electroporation Buffer (Lonza). 22 μL of RNP/cell mix was transferred to the corresponding wells of a Lonza shuttle 96-well electroporation plate. Cells were electroporated in duplicate with the manufacturer's pulse code. T cell media described above without any cytokines was added to the cells immediately post electroporation. T cells were rested for 10 minutes at 37° C. Gap Template AAVs were prepared in 48 well plates (Corning, Cat.353078)) with T cell media described above containing 2× cytokines, 400 U/mL recombinant human interleukin-2 (Peprotech, Cat. 200-02), 10 ng/ml recombinant human interleukin 7 (Peprotech, Cat. 200-07), and 10 ng/ml recombinant human interleukin 15 (Peprotech, Cat. 200-15) cytokines. The multiplicity of infection (MOI) of AAVs was 3×10^^5. AAVs were added to the T cells within 15 minutes post electroporation and incubated for 48 hours at 37° C. AAV-6 vectors encoded AAVS1 Template A, B, C, D or OG. Two days post-electroporation, cells were split 1:2 in 48 well plates replenished with T cell media with 1× cytokines as described above. sgRNAs were tested each with AAV constructs and gapped template.
On day 7 post-editing, cells were phenotyped by flow cytometry to determine GFP expression to confirm integration of AAV at their GAP template site. Briefly, T cells were washed in FACS buffer containing 2 mM EDTA (Invitrogen, Cat.15575020) and 1% FBS in PBS followed by re-suspending in FACS buffer containing 1:10,000 dilution of DAPI (Biolegend, Cat.422801) nuclear stain. Cells were then processed on a Cytoflex flow cytometer (Beckman Coulter) and analyzed using the FlowJo software package. T cells were gated based on size, shape, viability, and GFP expression. Values that were not determined by the flow cytometer were denoted as “ND”. Table 18 and FIGS. 8A-8B show mean percentage of T cells positive for GFP expression.

B1: G028986: TRBC sgRNA for Nme2 Base Editor (nucleic acid)
guide: GUGUCCUACCAGCAAGGGGUCCUGGUUGUAGCUCCCUGAAACCGUUGCUACAAUAAGGCCGUCGAAAGAUGUGCCGCAACGCUCUGCCUUCUGGCAUCGUU
modifications: chemical modifications; listed as RNA; modified_base 1: mod_base = OTHER; note = 2'-O-methyl modified nucleotide with phosphorothioate linkage; modified_base 2: mod_base = OTHER; modified_base 3: mod_base = OTHE
notes: TRBC sgRNA for Nme2 Base Editor
[1]; BE mRNA 0.5 ug/mL
  Mean percent editing, C to A/G: 1.0%
  Mean percent editing, C to T: 94.4%
  Mean percent editing, Indels: 0.3%
[1]; BE mRNA 1.0 ug/mL
  Mean percent editing, C to A/G: 0.9%
  Mean percent editing, C to T: 93.3%
  Mean percent editing, Indels: 1.0%

B2: G026584 (nucleic acid)
guide: UCAAAGUACCCUACAGGAGGACCAGUUGUAGCUCCCUGAAACCGUUGCUACAAUAAGGCCGUCGAAAGAUGUGCCGCAACGCUCUGCCUUCUGGCAUCGUU
modifications: chemical modifications, further chemistry not given here
[2]; BE mRNA 0.5 ug/mL
  Mean percent editing, C to A/G: 1.2%
  Mean percent editing, C to T: 91.8%
  Mean percent editing, Indels: 0.9%
[2]; BE mRNA 1.0 ug/mL
  Mean percent editing, C to A/G: 1.4%
  Mean percent editing, C to T: 91.6%
  Mean percent editing, Indels: 0.6%

B3: G013543: AAVS1 SpyCas9 guide RNA, guide sequence SEQ ID NO: 257, chr19:55115755-55115775 (nucleic acid)
guide: mU*mG*mU*rCrCrCrUrArGrUrGrGrCrCrCrCrArCrUrGrGrUrUrUrUrArGrAmGmCmUmAmGmAmAmAmUmAmGmCrArArGrUrUrArArArArUrArArGrGrCrUrArGrUrCrCrGrUrUrArUrCrAmAmCmUmUmGmAmAmAmAmAmGmUmGmGmCmAmCmCmGmAmGmUmCmGmGmUmGmCmU*mU*mU*mU
[3]; Donor 1, Template OG
  Mean percentage of T cells positive for GFP expression: 65.25%
[3]; Donor 2, Template OG
  Mean percentage of T cells positive for GFP expression: 64.40%

B4: G013523: AAVS1 SpyCas9 guide RNA, guide sequence SEQ ID NO: 255, chr19:55115637-55115657 (nucleic acid)
guide: mG*mG*mU*rGrArCrArCrArCrCrCrCrCrArUrUrUrCrCrGrUrUrUrUrArGrAmGmCmUmAmGmAmAmAmUmAmGmCrArArGrUrUrArArArArUrArArGrGrCrUrArGrUrCrCrGrUrUrArUrCrAmAmCmUmUmGmAmAmAmAmAmGmUmGmGmCmAmCmCmGmAmGmUmCmGmGmUmGmCmU*mU*mU*mU
[3]; Donor 1, Template D
  Mean percentage of T cells positive for GFP expression: 70.50%
[3]; Donor 2, Template D
  Mean percentage of T cells positive for GFP expression: 72.05%
